Results on two molecules are retold here after publication PMC4793217.

The target in assay [1] is T1, ME31B, endogenous (D. melanogaster (endogenous in embryos)) (UniProt P23128).
T1 sequence: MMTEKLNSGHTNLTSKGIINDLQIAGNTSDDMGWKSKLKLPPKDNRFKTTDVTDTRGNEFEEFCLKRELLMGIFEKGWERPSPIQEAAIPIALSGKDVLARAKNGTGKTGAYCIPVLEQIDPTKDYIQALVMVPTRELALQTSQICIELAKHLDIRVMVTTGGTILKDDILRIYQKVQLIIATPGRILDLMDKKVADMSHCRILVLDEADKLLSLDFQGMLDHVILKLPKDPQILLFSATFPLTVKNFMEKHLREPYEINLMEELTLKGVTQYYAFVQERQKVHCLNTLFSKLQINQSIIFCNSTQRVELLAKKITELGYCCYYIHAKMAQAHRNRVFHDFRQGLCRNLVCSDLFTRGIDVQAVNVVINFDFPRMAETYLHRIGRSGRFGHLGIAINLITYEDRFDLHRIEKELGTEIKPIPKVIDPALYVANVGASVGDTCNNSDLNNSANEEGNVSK
The assay can be described thus: co-IP.

Assay [2] has as its target IMP, endogenous (D. melanogaster (endogenous in embryos)). Briefly: co-IP.

Where only a bound is given, the exact number is not on record here.

B1: anti-ME31B (P012) synthetic Fab (Fab, V domains shown)
VH: EVQLVESGGGLVQPGGSLRLSCAASGFNLSYSSIHWVRQAPGKGLEWVASIYSYYGYTYYADSVKGRFTISADTSKNTAYLQMNSLRAEDTAVYYCARWYWYGWALDYWGQGTLVTVSS
VL: DIQMTQSPSSLSASVGDRVTITCRASQSVSSAVAWYQQKPGKAPKLLIYSASSLYSGVPSRFSGSRSGTDFTLTISSLQPEDFATYYCQQGPYPYYGLITFGQGTKVEIK
Regarding B1, the percent of IP input precipitated in assay [1] was less than 1%.

B2: anti-IMP (P054) synthetic Fab (Fab, V domains shown)
VH: EVQLVESGGGLVQPGGSLRLSCAASGFNLSYSYIHWVRQAPGKGLEWVASIYSYYSYTYYADSVKGRFTISADTSKNTAYLQMNSLRAEDTAVYYCARWWVVYGMDYWGQGTLVTVSS
VL: DIQMTQSPSSLSASVGDRVTITCRASQSVSSAVAWYQQKPGKAPKLLIYSASSLYSGVPSRFSGSRSGTDFTLTISSLQPEDFATYYCQQHWWLITFGQGTKVEIK
Consider B2, for which the percent of IP input precipitated in assay [2] lay within 1 to 10%.
